Experiment [1] addresses T1, DC-SIGN extracellular domain (ECD), wildtype, Q9NNX6.
T1 chain: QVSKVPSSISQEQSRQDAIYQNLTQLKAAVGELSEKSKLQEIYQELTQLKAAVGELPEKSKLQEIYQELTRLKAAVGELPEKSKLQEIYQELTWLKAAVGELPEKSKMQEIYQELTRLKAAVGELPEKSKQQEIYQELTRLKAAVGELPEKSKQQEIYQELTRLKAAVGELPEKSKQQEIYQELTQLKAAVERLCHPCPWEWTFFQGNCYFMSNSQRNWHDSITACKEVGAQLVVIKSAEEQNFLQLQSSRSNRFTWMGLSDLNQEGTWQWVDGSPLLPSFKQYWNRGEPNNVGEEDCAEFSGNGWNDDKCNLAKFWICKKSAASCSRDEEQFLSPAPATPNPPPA
As to the kind of experiment: cryo-EM structure; DC-SIGN ECD, single particles; low resolution map, three of the four CRDs visibly resolved. Particulars: remark: other sources report otherwise.

Experiment [2] concerns the target T1, DC-SIGN extracellular domain (ECD), …. As to the kind of experiment: dynamic light scattering; purified ECDs; tetrameric state judged from mannan affinity chromatography, DLS and DSF together. Conditions: remark: other sources report otherwise.

The stoichiometry N is a count of units in the complex or per binding partner.

B1: DC-SIGN extracellular domain (ECD), wildtype, Q9NNX6 59-404 (receptor)
chain: T1 chain
B1: the stoichiometry N in experiment [1] and in experiment [2] was 4 throughout.

Values taken from article PMC12933331, “A Cryptic Pocket Allosterically Modulates Oligosaccharide Binding to DC-SIGN” (JACS Au, 2026).
